Measured values: patent publication US20250340659A1 (PETMEDIX, published 2025)

Legend:
[1] = target: T1, canine OX40L, full length membrane form, expressed on HEK293 cells (canine); test: flow cytometry
T1 construct: also called OX40L expressing HEK; HEK OX40L cells
T1 chain: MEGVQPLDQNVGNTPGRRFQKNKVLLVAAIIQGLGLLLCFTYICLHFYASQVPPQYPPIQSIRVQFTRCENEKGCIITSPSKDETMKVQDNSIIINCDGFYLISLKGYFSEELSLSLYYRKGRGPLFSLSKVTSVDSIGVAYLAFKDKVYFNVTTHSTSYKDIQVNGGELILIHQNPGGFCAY
In short: (§1)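 CHO supernatants at 1, 5 or 10 μg/ml in PBS/3% FBS incubated 30′ on ice with cells surface-expressing canine OX40L. Bound antibody detected with fluorescent anti-canine Fc secondary (1:1000, 30 min, dark) and measured by flow cytometry, with parental WT HEK signal subtracted where stated.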

[2] = target: T2, recombinant canine OX40L ECD-TNCc-HIS protein (canine); test: SPR Koff (kd2)
T2 construct: also called Trimeric OX40L probe (HIS tag); trimeric canine OX40L
T2 chain: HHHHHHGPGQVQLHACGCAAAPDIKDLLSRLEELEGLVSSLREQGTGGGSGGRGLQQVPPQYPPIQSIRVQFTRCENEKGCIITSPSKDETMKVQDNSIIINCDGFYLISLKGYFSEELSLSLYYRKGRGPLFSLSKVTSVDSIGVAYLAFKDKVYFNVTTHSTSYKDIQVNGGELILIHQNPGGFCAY
Procedure: (§2) Affinity (Kd) of OX40L antibodies is measured by SPR, using a recombinant canine OX40L ECD-TNCc-HIS protein (Seq ID 811) as the capturing agent (FIG. 5B).
(§3) Functional affinity is determined using a Biakore 8K (Cytiva). in brief, purified OX40L ECD-TNCc-HIS protein is covalently bound at low density to the surface of a CM5 sensor chip (Cytiva) by amine coupling, using the manufacturer's recommended protocol. Candidate antibodies are subsequently passed across the chip surface at a range of concentrations and affinity determined using the dedicated software (Biacore Insight Evaluation Software). Curves were fitted using a bivalent analyte binding model.

[3] = target: T1, canine OX40L, full length membrane …; test: flow cytometry, OX40L HEK minus WT HEK
In short: as §1

[4] = target: T2, recombinant canine OX40L ECD-TNCc-HIS …; test: SPR KD1, bivalent analyte model
Procedure: as §2, §3

[5] = target: T2, recombinant canine OX40L ECD-TNCc-HIS …; test: SPR Koff (kd1)
Procedure: as §2, §3

[6] = target: T1, canine OX40L, full length membrane …; test: cell-based or functional assay

B1: PMX047 (antibody, V domains shown)
VH: EVQLVESGGDLVKPGGSLRLSCVASGFIFSSYSMSWVRQAPEKGLQLVAGINSAGSSTYYTDAVKGRFTISRDNAKNTVYLQMNSLRAEDTAIYYCAKRWVFDFWGQGTLVTVSS
VL: HIVMTQTPLSLSVSPGEPASISCKASQSLLLSYGNTYLYWFRQKPGQSPQRLIYKVSNRDPGVPDRFSGSGSGTDFTLRISRVEADDAGVYYCGQGIQDPFTFGQGTKLEIK
notes: also called PMX47
[1]
  GEO mean OX40L expressing HEK: 1.95e+06
[2]
  koff: 1.5e-05 s⁻¹
[3]
  GEO mean difference: 1.92e+06
[4]
  Kd: 12.5 nM
[5]
  koff: 0.000451 s⁻¹
[6]
  % Signal Inhibition Average: 61.6%
  % Signal Inhibition Rep1: 49.3%
  % Signal Inhibition Rep2: 73.1%
  % Signal Inhibition Rep3: 62.3%

B2: PMX053 (antibody, V domains shown)
VH: EVQLVESGGDLVKPAGSLRLSCVASGFTFSSYSMSWVRQAPEKGLQLVAGINSAGSSTYYTDAVKGRFTISRDNAKNTVYLQMNSLRAEDTAIYYCAKRWVFDYWGQGTLVTVSS
VL: DIVMTQTPLSLSVSPGEPASISCKASQSLPHSLGNTYLYWFRQKPGQSPQRLIYKVSNRDPGVPDRFSGSGSGTDFTLRISRVEADDAGIYYCGQGIQDPFTFGQGTKLEIK
notes: also called PMX53
[1]
  GEO mean OX40L expressing HEK: 3.03e+06
[2]
  koff: 0.565 s⁻¹
[3]
  GEO mean difference: 3e+06
[4]
  Kd: 3.4 nM
[5]
  koff: 0.000587 s⁻¹
[6]
  % Signal Inhibition Average: 39.7%
  % Signal Inhibition Rep1: 24.5%
  % Signal Inhibition Rep2: 45.8%
  % Signal Inhibition Rep3: 48.9%

B3: PMX051 (antibody, V domains shown)
VH: EVQLVESGGDLVKPGGSLRLSCVASGFSFNTYHMNWVRQAPGKGLHWVAFINSDGGGTSYADTVKGRFTISRDYAKNTLYLQMNSLRAEDTAVYYCVSGSIWTHFDYWGQGTLVTVSS
VL: SYVLTQLPSVSMTLRQTAHITCGGDIIGSKSVYWYQQKLGQAPVLIIYRDTNRPTGIPERFSGASSGNTATLTISGALAEDEADYYCQVWDSSTQAVFGGGTHLTVL
notes: also called PMX51
[1]
  GEO mean OX40L expressing HEK: 3.94e+06
[2]
  koff: 4.81 s⁻¹
[3]
  GEO mean difference: 3.92e+06
[4]
  Kd: 7.92 nM
[5]
  koff: 0.00119 s⁻¹
[6]
  % Signal Inhibition Average: 84.1%
  % Signal Inhibition Rep1: 82.2%
  % Signal Inhibition Rep2: 75.3%
  % Signal Inhibition Rep3: 94.7%

B4: PMX105 (antibody, V domains shown)
VH: EVQLVESGGDLVKPGGSLRLSCVASGFTFNTYHMNWVRQAPGKGLHWVAFINSGGSGTSYEDTVQGRFTISRDYAKNTLYLQMNSLRAEDTAVYYCACGSIWTHFDYWGQGTLVTVSS
VL: SYVLTQLPSVSVTLRQTAHITCGGDIIGSKSVYWYQQKLGQAPVMIIYRDNNRPTGIPERFSGASSGNTATLTISGSLAEDEADYYCQVWDSRTQALFGGGTHLTVL
[1]
  GEO mean OX40L expressing HEK: 584000
[2]
  koff: 1.23 s⁻¹
[3]
  GEO mean difference: 580000
[4]
  Kd: 17.6 nM
[5]
  koff: 0.00174 s⁻¹
[6]
  % Signal Inhibition Average: 84.2%
  % Signal Inhibition Rep1: 85.4%
  % Signal Inhibition Rep2: 94.8%
  % Signal Inhibition Rep3: 72.5%

B5: PMX052 (antibody, V domains shown)
VH: EVQLVESGGDLVKPAGSLRLSCVASGFTFSSYSMSWVRQAPEKGLQLVAGISGGGSRTYYSDAVKGRFTISRDNAKNTVYLQMNSLRAEDTAIYYCAKDGGSWAGYNFDYWGQGTLVTVSS
VL: DIVMTQTPPSLSVSPRETASISCKASQSLLHSDGSTYLDWYLQKPGQSPQLLIYLGSNRFTGVSDRFSGSGSGTEFTLRISRVEANDTGVYYCGQGTQLPYTFGQGTELEIK
notes: also called PMX52
[1]
  GEO mean OX40L expressing HEK: 765000
[2]
  koff: 0.0725 s⁻¹
[3]
  GEO mean difference: 734000
[4]
  Kd: 12 nM
[5]
  koff: 0.00276 s⁻¹
[6]
  % Signal Inhibition Average: 22.2%
  % Signal Inhibition Rep1: 15.7%
  % Signal Inhibition Rep2: 29.2%
  % Signal Inhibition Rep3: 21.7%
